From article PMC9135737 come the findings set out here.

For the assay, the target named is Roseovarius indicus B108 MmtN (the sample called MmtN in the DLS analysis) (Roseovarius indicus B108). The assay can be described thus: dynamic light scattering; DynaPro NanoStar, 4 °C, 2 μl of 2.5 mg ml^-1 protein in 10 mM Tris-HCl, 100 mM NaCl, pH 8.0.

Substance “Roseovarius indicus B108 MmtN (the sample called MmtN in the DLS analysis) (enzyme)” registered a stoichiometry N of 3.
